Legend:
Test in all cases: not stated; Table 1, GST-RBD, GDP-RhoA, GTP-Cdc42, GTP-Rac1; the caption names competition ELISA and SPR but not which gave these limits
GST-RhoA (wild type) = GST-RhoA (wild type) (UniProt P61586)
GST-Cdc42 = GST-Cdc42 (UniProt P60953)
GST-Rac1 = GST-Rac1 (UniProt P63000)

Sequence of GST-Cdc42 (P60953 whole entry): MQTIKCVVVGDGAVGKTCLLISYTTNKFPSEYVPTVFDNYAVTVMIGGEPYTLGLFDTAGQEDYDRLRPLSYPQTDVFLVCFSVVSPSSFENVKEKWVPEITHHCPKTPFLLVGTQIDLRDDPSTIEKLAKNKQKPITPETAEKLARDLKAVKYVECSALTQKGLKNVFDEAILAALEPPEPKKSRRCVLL
Sequence of GST-RhoA (wild type) (P61586 whole entry): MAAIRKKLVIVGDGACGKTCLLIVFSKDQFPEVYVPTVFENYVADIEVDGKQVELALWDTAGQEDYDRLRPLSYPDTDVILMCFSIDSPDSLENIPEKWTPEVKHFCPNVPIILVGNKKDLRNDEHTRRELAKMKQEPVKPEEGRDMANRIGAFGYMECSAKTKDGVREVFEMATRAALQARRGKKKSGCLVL

Kd (GST-RhoA (wild type)): > 50 µM | Kd (GST-Cdc42): > 50 µM | Kd (GST-Rac1): > 50 µM
Substance: GST-RBD (Rho binding domain of Rhotekin fused to GST) (domain or fragment)

— publication PMC2323369
